According to patent US20170002055A1, “Novel peptides and combination of peptides for use in immunotherapy against ovarian cancer and other cancers” (immatics biotechnologies GmbH, priority 2015, published 2017):

Each substance was assayed against HLA-A*02:01 (Homo sapiens, UniProt P04439, D140Y/D185E/D98H/E176V/E277Q/G131W/G231S/I119V/I121R/I166T/I218V/L300P/L318F/N151K/N90K/P208A/P217A/Q86G/Q94H/R138H/R169H/T345S) (assay: MHC binding assay (UV-ligand exchange, β2m ELISA, peptide exchange yield)). Conditions: MHC class I binding score; binding to HLA-A*02:01 ranged by peptide exchange yield (UV-ligand exchange, β2m ELISA).
From the text: Candidate peptides for T cell based therapies according to the present invention were further tested for their MHC binding capacity (affinity). The individual peptide-MHC complexes were produced by UV-ligand exchange, where a UV-sensitive peptide is cleaved upon UV-irradiation, and exchanged with the peptide of interest as analyzed. Only peptide candidates that can effectively bind and stabilize the peptide-receptive MHC molecules prevent dissociation of the MHC complexes. To determine the yield of the exchange reaction, an ELISA was performed based on the detection of the light chain (β2m) of stabilized MHC complexes. The assay was performed as generally described in Rodenko et al. (Rodenko et al., 2006).
96 well MAXISorp plates (NUNC) were coated over night with 2 ug/ml streptavidin in PBS at room temperature, washed 4× and blocked for 1h at 37° C. in 2% BSA containing blocking buffer. […] Peptide-MHC monomers of the UV-exchange reaction were diluted 100 fold in blocking buffer. Samples were incubated for 1h at 37° C., washed four times, incubated with 2 ug/ml HRP conjugated anti-β2m for 1h at 37° C., washed again and detected with TMB solution that is stopped with […]. Absorption was measured at 450 nm. Candidate peptides that show a high exchange yield (preferably higher than 50%, most preferred higher than 75%) are generally preferred for a generation and production of antibodies or fragments thereof, and/or T cell receptors or fragments thereof, as they show sufficient avidity to the MHC molecules and prevent dissociation of the MHC complexes.
“177 (YLLPEEYTSTL; listed as Homo sapiens) [compound 177]” was tested, and the Peptide exchange was ““++++” (≧75% = ++++)”.
“178 (ALTEIAFVV; listed as Homo sapiens) [compound 178]” was tested, and the Peptide exchange was ““++++” (≧75% = ++++)”.
“179 (KVLNELYTV; listed as Homo sapiens) [compound 179]” was tested, and the Peptide exchange was ““+++” (≧50 = +++)”.
For “180 (FQIDPHSGLVTV; listed as Homo sapiens) [compound 180]”, the Peptide exchange was ““++” (≧20% = ++)”.
In the case of “181 (LLWAGTAFQV; listed as Homo sapiens) [compound 181]”, the Peptide exchange is reported as ““+++” (≧50 = +++)”.
“182 (MLLEAPGIFL; listed as Homo sapiens) [compound 182]” was tested, and the Peptide exchange was ““+++” (≧50 = +++)”.
For “183 (FGLDLVTEL; listed as Homo sapiens) [compound 183]”, the Peptide exchange was ““+++” (≧50 = +++)”.
For “184 (YLMDINGKMWL; listed as Homo sapiens) [compound 184]”, the Peptide exchange was ““+++” (≧50 = +++)”.
With “185 (FLIDDKGYTL; listed as Homo sapiens) [compound 185]” the Peptide exchange was ““++” (≧20% = ++)”.
For “186 (TLFFQQNAL; listed as Homo sapiens) [compound 186]”, the Peptide exchange was ““++” (≧20% = ++)”.
In the case of “187 (RQISIRGIVGV; listed as Homo sapiens) [compound 187]”, the Peptide exchange is reported as ““+++” (≧50 = +++)”.
With “188 (GLFPVTPEAV; listed as Homo sapiens) [compound 188]” the Peptide exchange was ““+++” (≧50 = +++)”.
For “189 (ALQRKLPYV; listed as Homo sapiens) [compound 189]”, the Peptide exchange was ““+++” (≧50 = +++)”.
In the case of “190 (FLSSLTETI; listed as Homo sapiens) [compound 190]”, the Peptide exchange is reported as ““+++” (≧50 = +++)”.
“192 (KMLDGASFTL; listed as Homo sapiens) [compound 192]” was tested, and the Peptide exchange was ““+++” (≧50 = +++)”.
In the case of “193 (QLLDADGFLNV; listed as Homo sapiens) [compound 193]”, the Peptide exchange is reported as ““+++” (≧50 = +++)”.
In the case of “194 (ALPLFVITV; listed as Homo sapiens) [compound 194]”, the Peptide exchange is reported as ““+++” (≧50 = +++)”.
“195 (GLFADLLPRL; listed as Homo sapiens) [compound 195]” was tested, and the Peptide exchange was ““+++” (≧50 = +++)”.
In the case of “196 (YLYSVEIKL; listed as Homo sapiens) [compound 196]”, the Peptide exchange is reported as ““++++” (≧75% = ++++)”.
“197 (ALGPEGGRV; listed as Homo sapiens) [compound 197]” was tested, and the Peptide exchange was ““++” (≧20% = ++)”.
“200 (LLFGSVQEV; listed as Homo sapiens) [compound 200]” was tested, and the Peptide exchange was ““+++” (≧50 = +++)”.
In the case of “201 (RLVDYLEGI; listed as Homo sapiens) [compound 201]”, the Peptide exchange is reported as ““+++” (≧50 = +++)”.
With “202 (ALLDQQGSRWTL; listed as Homo sapiens) [compound 202]” the Peptide exchange was ““+++” (≧50 = +++)”.
“204 (KIAENVEEV; listed as Homo sapiens) [compound 204]” was tested, and the Peptide exchange was ““++” (≧20% = ++)”.
With “205 (SLYPGTETMGL; listed as Homo sapiens) [compound 205]” the Peptide exchange was ““+++” (≧50 = +++)”.
With “206 (VLQEGKLQKLAQL; listed as Homo sapiens) [compound 206]” the Peptide exchange was ““+++” (≧50 = +++)”.
In the case of “207 (GLTSTNAEV; listed as Homo sapiens) [compound 207]”, the Peptide exchange is reported as ““++” (≧20% = ++)”.
“208 (KISPVTFSV; listed as Homo sapiens) [compound 208]” was tested, and the Peptide exchange was ““+++” (≧50 = +++)”.
With “209 (KLIESKHEV; listed as Homo sapiens) [compound 209]” the Peptide exchange was ““++” (≧20% = ++)”.
In the case of “210 (LLLNAVLTV; listed as Homo sapiens) [compound 210]”, the Peptide exchange is reported as ““++” (≧20% = ++)”.
With “211 (LLWPGAALL; listed as Homo sapiens) [compound 211]” the Peptide exchange was ““++” (≧20% = ++)”.
In the case of “212 (ALWDQDNLSV; listed as Homo sapiens) [compound 212]”, the Peptide exchange is reported as ““++” (≧20% = ++)”.
With “214 (FLLDLDPLLL; listed as Homo sapiens) [compound 214]” the Peptide exchange was ““+++” (≧50 = +++)”.
In the case of “216 (NLWEDPYYL; listed as Homo sapiens) [compound 216]”, the Peptide exchange is reported as ““+++” (≧50 = +++)”.
For “217 (ALIHPVSTV; listed as Homo sapiens) [compound 217]”, the Peptide exchange was ““++” (≧20% = ++)”.
“218 (SALEELVNV; listed as Homo sapiens) [compound 218]” was tested, and the Peptide exchange was ““++” (≧20% = ++)”.
In the case of “219 (KLSDIGITV; listed as Homo sapiens) [compound 219]”, the Peptide exchange is reported as ““+++” (≧50 = +++)”.
“220 (LLQKFVPEI; listed as Homo sapiens) [compound 220]” was tested, and the Peptide exchange was ““++” (≧20% = ++)”.
“221 (ALYEEGLLL; listed as Homo sapiens) [compound 221]” was tested, and the Peptide exchange was ““++” (≧20% = ++)”.
In the case of “222 (NLIENVQRL; listed as Homo sapiens) [compound 222]”, the Peptide exchange is reported as ““++” (≧20% = ++)”.
With “223 (ALLENIALYL; listed as Homo sapiens) [compound 223]” the Peptide exchange was ““+++” (≧50 = +++)”.
For “224 (TLIDAQWVL; listed as Homo sapiens) [compound 224]”, the Peptide exchange was ““+++” (≧50 = +++)”.
For “225 (SLLKVLPAL; listed as Homo sapiens) [compound 225]”, the Peptide exchange was ““+++” (≧50 = +++)”.
In the case of “226 (MLYVVPIYL; listed as Homo sapiens) [compound 226]”, the Peptide exchange is reported as ““++” (≧20% = ++)”.
In the case of “227 (ALMNTLLYL; listed as Homo sapiens) [compound 227]”, the Peptide exchange is reported as ““++” (≧20% = ++)”.
In the case of “228 (AMQEYIAVV; listed as Homo sapiens) [compound 228]”, the Peptide exchange is reported as ““++” (≧20% = ++)”.
In the case of “229 (RLPGPLGTV; listed as Homo sapiens) [compound 229]”, the Peptide exchange is reported as ““++” (≧20% = ++)”.
In the case of “230 (ILVDWLVEV; listed as Homo sapiens) [compound 230]”, the Peptide exchange is reported as ““+” (≧10% = +)”.
“231 (FLSPQQPPLLL; listed as Homo sapiens) [compound 231]” was tested, and the Peptide exchange was ““++” (≧20% = ++)”.
With “232 (ALLEAQDVELYL; listed as Homo sapiens) [compound 232]” the Peptide exchange was ““++” (≧20% = ++)”.
“233 (VLSETLYEL; listed as Homo sapiens) [compound 233]” was tested, and the Peptide exchange was ““++” (≧20% = ++)”.
For “234 (ALMEDTGRQML; listed as Homo sapiens) [compound 234]”, the Peptide exchange was ““++” (≧20% = ++)”.
“235 (YLNDLHEVLL; listed as Homo sapiens) [compound 235]” was tested, and the Peptide exchange was ““++++” (≧75% = ++++)”.
For “236 (GLLEAKVSL; listed as Homo sapiens) [compound 236]”, the Peptide exchange was ““+++” (≧50 = +++)”.
“237 (ALLEASGTLLL; listed as Homo sapiens) [compound 237]” was tested, and the Peptide exchange was ““++++” (≧75% = ++++)”.
With “238 (YLISFQTHI; listed as Homo sapiens) [compound 238]” the Peptide exchange was ““+++” (≧50 = +++)”.
With “239 (AAFAGKLLSV; listed as Homo sapiens) [compound 239]” the Peptide exchange was ““+++” (≧50 = +++)”.
“240 (ILLEQAFYL; listed as Homo sapiens) [compound 240]” was tested, and the Peptide exchange was ““+++” (≧50 = +++)”.
In the case of “241 (SLVEVNPAYSV; listed as Homo sapiens) [compound 241]”, the Peptide exchange is reported as ““+++” (≧50 = +++)”.
